# In patent US8030025B2, “Antibodies directed to angiopoietin-1 and angiopoietin-2 and uses thereof” (Amgen Inc., dated 2011):
# B1: H5L7 (antibody, V domains shown)
# VH: EVQLVQSGGGVVQPGRSLRLSCAASGFTFSSYGMHWVRQAPGKGLEWVSYISSSGSTIYYADSVKGRFTISRDNAKNSLYLQMNSLRAEDTAVYYCARDLLDYDIWTGYGYWGQGTLVTVSS
# VL: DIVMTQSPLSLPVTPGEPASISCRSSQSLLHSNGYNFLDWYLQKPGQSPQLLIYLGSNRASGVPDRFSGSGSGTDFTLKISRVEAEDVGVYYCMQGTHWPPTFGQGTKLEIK
# B2: H6L8 (antibody, V domains shown)
# VH: EVQLVQSGGGVVQPGRSLRLSCAASGFTFSSYGMHWVRQAPGKGLEWVSYISSSGSTIYYADSVKGRFTISRDNAKNSLYLQMNSLRAEDTAVYYCARDLLDYDIYTGYGYWGQGTLVTVSS
# VL: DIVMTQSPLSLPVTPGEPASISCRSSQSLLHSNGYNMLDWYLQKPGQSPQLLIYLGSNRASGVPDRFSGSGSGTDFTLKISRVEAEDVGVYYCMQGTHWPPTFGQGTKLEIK
# B3: H6L7 (antibody, V domains shown)
# VH: EVQLVQSGGGVVQPGRSLRLSCAASGFTFSSYGMHWVRQAPGKGLEWVSYISSSGSTIYYADSVKGRFTISRDNAKNSLYLQMNSLRAEDTAVYYCARDLLDYDIYTGYGYWGQGTLVTVSS
# VL: not shown
# B4: H5L8 (antibody, V domains shown)
# VH: EVQLVQSGGGVVQPGRSLRLSCAASGFTFSSYGMHWVRQAPGKGLEWVSYISSSGSTIYYADSVKGRFTISRDNAKNSLYLQMNSLRAEDTAVYYCARDLLDYDIWTGYGYWGQGTLVTVSS
# VL: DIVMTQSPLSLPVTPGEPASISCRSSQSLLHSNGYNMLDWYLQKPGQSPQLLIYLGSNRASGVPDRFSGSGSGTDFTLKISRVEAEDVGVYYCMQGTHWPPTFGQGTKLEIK
# B5: H2L7 (antibody, V domains shown)
# VH: EVQLVQSGGGVVQPGRSLRLSCAASGFTFSSYGMHWVRQAPGKGLEWVSYISSSGSTIEYADSVKGRFTISRDNAKNSLYLQMNSLRAEDTAVYYCARDLLDYDILTGYGYWGQGTLVTVSS
# VL: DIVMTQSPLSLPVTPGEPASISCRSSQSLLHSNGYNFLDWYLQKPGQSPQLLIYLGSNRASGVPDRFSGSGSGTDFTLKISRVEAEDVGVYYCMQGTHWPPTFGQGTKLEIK
# B6: H4L2 (antibody, V domains shown)
# VH: EVQLVQSGGGVVQPGRSLRLSCAASGFTFSSYGMHWVRQAPGKGLEWVSYISSSGSTIYYADSVKGRFTISRDNAKNSLYLQMNSLRAEDTAVYYCARDLLDYDLLTGYGYWGQGTLVTVSS
# VL: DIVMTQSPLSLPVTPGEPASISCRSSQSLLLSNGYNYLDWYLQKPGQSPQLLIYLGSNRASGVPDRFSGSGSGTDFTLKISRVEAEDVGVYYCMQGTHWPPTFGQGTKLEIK
# B7: H4L4 (antibody, V domains shown)
# VH: EVQLVQSGGGVVQPGRSLRLSCAASGFTFSSYGMHWVRQAPGKGLEWVSYISSSGSTIYYADSVKGRFTISRDNAKNSLYLQMNSLRAEDTAVYYCARDLLDYDLLTGYGYWGQGTLVTVSS
# VL: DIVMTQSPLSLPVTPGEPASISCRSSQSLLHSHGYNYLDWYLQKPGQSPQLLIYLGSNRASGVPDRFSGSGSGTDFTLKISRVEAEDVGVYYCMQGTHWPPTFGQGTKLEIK
# B8: H5L9 (antibody, V domains shown)
# VH: EVQLVQSGGGVVQPGRSLRLSCAASGFTFSSYGMHWVRQAPGKGLEWVSYISSSGSTIYYADSVKGRFTISRDNAKNSLYLQMNSLRAEDTAVYYCARDLLDYDIWTGYGYWGQGTLVTVSS
# VL: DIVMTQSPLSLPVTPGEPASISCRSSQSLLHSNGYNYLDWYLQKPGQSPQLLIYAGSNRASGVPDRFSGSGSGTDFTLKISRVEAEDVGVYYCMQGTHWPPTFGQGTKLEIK
# B9: H4L13 (antibody, V domains shown)
# VH: EVQLVQSGGGVVQPGRSLRLSCAASGFTFSSYGMHWVRQAPGKGLEWVSYISSSGSTIYYADSVKGRFTISRDNAKNSLYLQMNSLRAEDTAVYYCARDLLDYDLLTGYGYWGQGTLVTVSS
# VL: not shown
# B10: H5L12 (antibody, V domains shown)
# VH: EVQLVQSGGGVVQPGRSLRLSCAASGFTFSSYGMHWVRQAPGKGLEWVSYISSSGSTIYYADSVKGRFTISRDNAKNSLYLQMNSLRAEDTAVYYCARDLLDYDIWTGYGYWGQGTLVTVSS
# VL: not shown
# B11: H4L6 (antibody, V domains shown)
# VH: EVQLVQSGGGVVQPGRSLRLSCAASGFTFSSYGMHWVRQAPGKGLEWVSYISSSGSTIYYADSVKGRFTISRDNAKNSLYLQMNSLRAEDTAVYYCARDLLDYDLLTGYGYWGQGTLVTVSS
# VL: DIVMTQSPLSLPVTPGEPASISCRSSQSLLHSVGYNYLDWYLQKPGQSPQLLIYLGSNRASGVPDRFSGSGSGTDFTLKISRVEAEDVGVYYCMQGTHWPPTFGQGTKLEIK
# B12: H5L4 (antibody, V domains shown)
# VH: EVQLVQSGGGVVQPGRSLRLSCAASGFTFSSYGMHWVRQAPGKGLEWVSYISSSGSTIYYADSVKGRFTISRDNAKNSLYLQMNSLRAEDTAVYYCARDLLDYDIWTGYGYWGQGTLVTVSS
# VL: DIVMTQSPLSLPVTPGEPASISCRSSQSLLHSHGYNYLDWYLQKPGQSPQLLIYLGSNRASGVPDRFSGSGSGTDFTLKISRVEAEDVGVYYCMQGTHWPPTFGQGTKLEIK
# B13: H5L1 (antibody, V domains shown)
# VH: EVQLVQSGGGVVQPGRSLRLSCAASGFTFSSYGMHWVRQAPGKGLEWVSYISSSGSTIYYADSVKGRFTISRDNAKNSLYLQMNSLRAEDTAVYYCARDLLDYDIWTGYGYWGQGTLVTVSS
# VL: not shown
# B14: H3L7 (antibody, V domains shown)
# VH: EVQLVQSGGGVVQPGRSLRLSCAASGFTFSSYGMHWVRQAPGKGLEWVSYISSSGSTIQYADSVKGRFTISRDNAKNSLYLQMNSLRAEDTAVYYCARDLLDYDILTGYGYWGQGTLVTVSS
# VL: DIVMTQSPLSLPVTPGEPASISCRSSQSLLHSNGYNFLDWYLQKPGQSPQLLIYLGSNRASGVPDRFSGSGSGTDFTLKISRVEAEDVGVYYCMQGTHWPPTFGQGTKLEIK
# B15: H10L7 (antibody, V domains shown)
# VH: EVQLVQSGGGVVQPGRSLRLSCAASGFTFSSYGMHWVRQAPGKGLEWVSYISSSGSTIYYADSVKGRFTISRDNAKNSLYLQMNSLRAEDTAVYYCARDLLDYDILTGYGLWGQGTLVTVSS
# VL: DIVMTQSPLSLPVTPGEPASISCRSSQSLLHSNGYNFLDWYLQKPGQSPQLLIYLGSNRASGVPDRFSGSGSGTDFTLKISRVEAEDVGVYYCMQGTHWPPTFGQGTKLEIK
# B16: H11L7 (antibody, V domains shown)
# VH: EVQLVQSGGGVVQPGRSLRLSCAASGFTFSSYGMHWVRQAPGKGLEWVSYISSSGSTIYYADSVKGRFTISRDNAKNSLYLQMNSLRAEDTAVYYCARDLLDYDILTGYGMWGQGTLVTVSS
# VL: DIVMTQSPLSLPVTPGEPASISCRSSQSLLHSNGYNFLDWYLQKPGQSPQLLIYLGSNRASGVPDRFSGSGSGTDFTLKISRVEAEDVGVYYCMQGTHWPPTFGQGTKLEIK
# B17: H4L11 (IgG2) (antibody, V domains shown)
# VH: EVQLVQSGGGVVQPGRSLRLSCAASGFTFSSYGMHWVRQAPGKGLEWVSYISSSGSTIYYADSVKGRFTISRDNAKNSLYLQMNSLRAEDTAVYYCARDLLDYDLLTGYGYWGQGTLVTVSS
# VL: not shown
# B18: H5L6 (antibody, V domains shown)
# VH: EVQLVQSGGGVVQPGRSLRLSCAASGFTFSSYGMHWVRQAPGKGLEWVSYISSSGSTIYYADSVKGRFTISRDNAKNSLYLQMNSLRAEDTAVYYCARDLLDYDIWTGYGYWGQGTLVTVSS
# VL: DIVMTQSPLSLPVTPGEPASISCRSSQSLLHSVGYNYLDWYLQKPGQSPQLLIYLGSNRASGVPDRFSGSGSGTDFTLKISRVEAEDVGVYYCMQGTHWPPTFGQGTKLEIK
# B19: H4L11 (antibody, V domains shown)
# VH: EVQLVQSGGGVVQPGRSLRLSCAASGFTFSSYGMHWVRQAPGKGLEWVSYISSSGSTIYYADSVKGRFTISRDNAKNSLYLQMNSLRAEDTAVYYCARDLLDYDLLTGYGYWGQGTLVTVSS
# VL: not shown
# B20: H6L7 (IgG2) (antibody, V domains shown)
# VH: EVQLVQSGGGVVQPGRSLRLSCAASGFTFSSYGMHWVRQAPGKGLEWVSYISSSGSTIYYADSVKGRFTISRDNAKNSLYLQMNSLRAEDTAVYYCARDLLDYDIYTGYGYWGQGTLVTVSS
# VL: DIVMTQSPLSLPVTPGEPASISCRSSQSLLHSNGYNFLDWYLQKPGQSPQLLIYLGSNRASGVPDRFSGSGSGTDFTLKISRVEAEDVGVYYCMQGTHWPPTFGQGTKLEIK
# B21: H6L6 (antibody, V domains shown)
# VH: EVQLVQSGGGVVQPGRSLRLSCAASGFTFSSYGMHWVRQAPGKGLEWVSYISSSGSTIYYADSVKGRFTISRDNAKNSLYLQMNSLRAEDTAVYYCARDLLDYDIYTGYGYWGQGTLVTVSS
# VL: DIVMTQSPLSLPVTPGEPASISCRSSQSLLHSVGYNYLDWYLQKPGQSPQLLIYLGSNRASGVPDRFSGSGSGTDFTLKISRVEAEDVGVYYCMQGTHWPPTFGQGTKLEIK
# B22: H4L12 (antibody, V domains shown)
# VH: EVQLVQSGGGVVQPGRSLRLSCAASGFTFSSYGMHWVRQAPGKGLEWVSYISSSGSTIYYADSVKGRFTISRDNAKNSLYLQMNSLRAEDTAVYYCARDLLDYDLLTGYGYWGQGTLVTVSS
# VL: not shown
# B23: H5L11 (antibody, V domains shown)
# VH: EVQLVQSGGGVVQPGRSLRLSCAASGFTFSSYGMHWVRQAPGKGLEWVSYISSSGSTIYYADSVKGRFTISRDNAKNSLYLQMNSLRAEDTAVYYCARDLLDYDIWTGYGYWGQGTLVTVSS
# VL: not shown
# B24: H4L7 (antibody, V domains shown)
# VH: EVQLVQSGGGVVQPGRSLRLSCAASGFTFSSYGMHWVRQAPGKGLEWVSYISSSGSTIYYADSVKGRFTISRDNAKNSLYLQMNSLRAEDTAVYYCARDLLDYDLLTGYGYWGQGTLVTVSS
# VL: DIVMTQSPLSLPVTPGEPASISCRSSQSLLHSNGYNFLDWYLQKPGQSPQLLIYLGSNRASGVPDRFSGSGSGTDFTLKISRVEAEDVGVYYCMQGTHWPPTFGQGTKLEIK
# Columns and labels:
# [1] = target: biotinylated human angiopoietin 1 (human, UniProt Q15389, biotin); assay: HTRF neutralization; biotin-hAng1 vs huTie-2-Fc-APC
# [2] = target: biotinylated human angiopoietin 2 (human, UniProt O15123, biotin); assay: HTRF neutralization; biotin-hAng2 vs huTie-2-Fc-APC
# Rabbit Ang1 = Rabbit Ang1 (rabbit, UniProt G1SK98); assay: neutralization ELISA; coated angiopoietin vs Tie2-Fc
# Human Ang1 = Human Ang1 (human, UniProt Q15389); assay: as above
# Murine Ang1 = Murine Ang1 (mouse, UniProt O08538); assay: as above
# Human Ang2 = Human Ang2 (human, UniProt O15123); assay: as above
# Rabbit Ang2 = Rabbit Ang2 (rabbit, UniProt G1T9B3); assay: as above
# Cyno Ang2 = Cyno Ang2 (cynomolgus monkey, UniProt A0A2K5VNX6); assay: as above
# Murine Ang2 = Murine Ang2 (mouse, UniProt O35608); assay: as above
# Cyno Ang1 = Cyno Ang1 (cynomolgus monkey, UniProt A0A2K5VW43); assay: as above
Binder,IC50 [1],IC90 [1],IC50 [2],IC90 [2],further results
B1,0.07 nM,0.42 nM,0.07 nM,0.23 nM,
B2,0.57 nM,7.7 nM,0.05 nM,0.19 nM,
B3,0.06 nM,0.49 nM,0.06 nM,0.19 nM,
B4,0.37 nM,3.6 nM,0.07 nM,0.21 nM,
B5,0.33 nM,3.6 nM,0.06 nM,0.2 nM,
B6,0.66 nM,6.8 nM,0.06 nM,0.19 nM,
B7,0.87 nM,8.2 nM,0.06 nM,0.16 nM,
B8,18 nM,181 nM,0.19 nM,1.57 nM,
B9,0.15 nM,1.6 nM,0.06 nM,0.19 nM,
B10,,,0.07 nM,,
B11,0.74 nM,15 nM,0.06 nM,0.2 nM,
B12,0.6 nM,11 nM,0.07 nM,0.21 nM,
B13,,,0.06 nM,,
B14,0.58 nM,7.1 nM,0.06 nM,0.23 nM,
B15,0.15 nM,2.2 nM,0.06 nM,0.19 nM,
B16,0.15 nM,1.2 nM,0.06 nM,0.2 nM,
B17,,,,,IC50 (Rabbit Ang1): 16 nM; IC50 (Human Ang1): 17 nM; IC50 (Murine Ang1): 7.7 nM; IC50 (Human Ang2): 0.21 nM; IC50 (Rabbit Ang2): 0.12 nM; IC50 (Cyno Ang2): 0.16 nM; IC50 (Murine Ang2): 0.12 nM
B18,0.32 nM,3.6 nM,0.07 nM,0.23 nM,
B19,7.3 nM,107 nM,0.05 nM,0.17 nM,
B20,,,,,IC50 (Rabbit Ang1): 0.18 nM; IC50 (Cyno Ang1): 0.19 nM; IC50 (Human Ang1): 0.12 nM; IC50 (Murine Ang1): 0.12 nM; IC50 (Human Ang2): 0.22 nM; IC50 (Rabbit Ang2): 0.15 nM; IC50 (Cyno Ang2): 0.19 nM; IC50 (Murine Ang2): 0.13 nM
B21,0.66 nM,10 nM,0.06 nM,0.2 nM,
B22,0.63 nM,8.7 nM,0.06 nM,0.21 nM,
B23,0.97 nM,18 nM,0.08 nM,0.25 nM,
B24,0.23 nM,2.8 nM,0.06 nM,0.22 nM,
